Laboratory results taken from article PMC2173242 (The Journal of Cell Biology, 2002).

Target: Human recombinant His6-tagged Hsp70 (human, UniProt P0DMV8 1-641)
Assay: pull-down

Chain of Human recombinant His6-tagged Hsp70 (P0DMV8 whole entry): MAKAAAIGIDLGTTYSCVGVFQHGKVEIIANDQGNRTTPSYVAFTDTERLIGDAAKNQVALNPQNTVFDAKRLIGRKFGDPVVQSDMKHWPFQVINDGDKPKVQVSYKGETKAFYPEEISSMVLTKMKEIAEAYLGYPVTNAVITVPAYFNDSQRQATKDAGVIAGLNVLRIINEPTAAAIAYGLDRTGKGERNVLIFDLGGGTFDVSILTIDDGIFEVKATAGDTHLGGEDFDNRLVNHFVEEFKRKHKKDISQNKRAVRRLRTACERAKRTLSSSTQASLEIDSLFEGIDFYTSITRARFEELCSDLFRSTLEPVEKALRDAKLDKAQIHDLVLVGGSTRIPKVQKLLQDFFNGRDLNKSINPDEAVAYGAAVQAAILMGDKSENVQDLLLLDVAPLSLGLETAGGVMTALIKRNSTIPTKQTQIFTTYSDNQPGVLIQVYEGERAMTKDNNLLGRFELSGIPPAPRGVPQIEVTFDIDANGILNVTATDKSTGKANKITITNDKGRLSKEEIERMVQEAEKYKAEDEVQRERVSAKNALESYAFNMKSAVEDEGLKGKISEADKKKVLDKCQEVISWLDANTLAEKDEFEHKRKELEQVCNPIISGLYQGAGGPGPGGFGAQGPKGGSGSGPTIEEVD

How did the “ka (saturation of the effect of peptide C on binding of Hsp70-ADP to GST-CD40)” value turn out when GCEVFGLGWRSYKH [Peptide C] was run?
The value was about 30 µM.
